Assay results taken from the domain aggregation screens of Martell et al. (2025).

Assay: soluble fraction after stress (log2 fold change); higher = more stays soluble; pooled small domains, quantitative proteomics
Settings: stress: pH 4
How it was run: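 Aggregation propensity is read out as the fold change in how much of each domain remains soluble after acid stress. The custom small-domain libraries were pooled, held at pH 4 and analysed with high-throughput quantitative proteomics. On the log2 scale used, higher values mean more of the domain stayed soluble.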

**Q.** With “HMTVEVFQSLVQTFREMSPRKAASILEELKRDLAVEILLHMPEDGVAAILARMDPARAARLTEQLALEKD” as the sequence, how does the “soluble fraction (log2)” value read?
**A.** Its value is -0.867.

**Q.** For “HMTVGEAHLEEVYLKVLKQVEEQGTALIRTTDVETGRPAAGIRRRYMRGTLPDEWVAKFEALPGWTWAPG”, which “soluble fraction (log2)” value is on record?
**A.** The value was -0.952.

**Q.** Which “soluble fraction (log2)” value does the source give for “HMTVGEKIQKYRKDLDLSQEELGQKLLVSRQTISLWEKDQTVPTIDNLIRLREIFGVSVDEILGF” here?
**A.** The value was -1.69.

**Q.** Which “soluble fraction (log2)” value does the source give for “HMTVIARQIPPLVPRMLDGLEAFIKLDVPFEEKERLARVQMLRSSLDRDNLDTAEIFRAVLEAYNIELQY” here?
**A.** Its value is 0.195.

**Q.** Which “soluble fraction (log2)” value does the source give for “HMTVKKEIAKVKPTPLGWLRVRETPSLNGAEITKVNTGESYDVLDKETGWIKIKVSETVEGWVSDAYIELS” here?
**A.** The value was 0.124.

**Q.** For “HMTVLPTENDAKALVGLNEDEAVKIIEGNGWTYRIGSRDGEQFMLTEDYSTSRLTLGIEKSIVVTATI”, which “soluble fraction (log2)” value is on record?
**A.** The value was -0.56.

**Q.** For “HMTVLVPNLTGKTLLEAEILLDQAGLKKGDVYSESNKNVPKDHIIRQKPAPNTKIQKGATIDIYRSLGPE”, which “soluble fraction (log2)” value is on record?
**A.** Its value is -0.0793.

**Q.** Which “soluble fraction (log2)” value does the source give for “HMTVNLPPKQKAAILLMSLPPEVSAQLFKELGPDEVHAITLEISKLPPISPDVRAQVIDEFLHSS” here?
**A.** The value was -0.226.

**Q.** With “HMTVSIGSVIARERRLRGDTQQELAERLGVSKAAVSKWEVGQSIPDVTLLPRIAAYFSLTLDEL” as the sequence, how does the “soluble fraction (log2)” value read?
**A.** The value was -0.276.

**Q.** Which “soluble fraction (log2)” value does the source give for “HMTVVLPGESLTVNIIQEGKELGQGVGYLDDGTMVVIEDGRRYIDQTIEVTVTRVLQTVAGRMIFAQLT” here?
**A.** Its value is -0.886.

**Q.** For “HMTWDSFIGYTVTDVQKGYLGEITDVDETTINVLLRVDHKGEELLIPAVEELITEADHEARSLTVSLPEGL”, which “soluble fraction (log2)” value is on record?
**A.** Its value is -2.11.

**Q.** Which “soluble fraction (log2)” value does the source give for “HMTYFIADLIGLQVYTDSGELLGKVDDIYNSGSADIYVVKDELGKQILLPGIKDVIKQIDVDNEKIIVHLI” here?
**A.** The value was -1.62.

**Q.** For “HMTYIQSNLKFLRNKMNISQEELAKRLFVTHQTVSNHENGKSQPNFEMIEKYASFFNVPFEDLIHKDLSL”, which “soluble fraction (log2)” value is on record?
**A.** The value was -0.309.

**Q.** With “HMTYNIPEHYQTIDVKEYVRKLVSDGDSDQIGRVEMELTEFETRNLFPVLKVLIYIIDTMRK” as the sequence, how does the “soluble fraction (log2)” value read?
**A.** Its value is -1.73.

**Q.** With “HMTYQTVRYGSTGSAVRQLQSALNQKGYQLSEDGIFGAKTRAAVRDYQKKNGLLLDGIAGSQTWNHLMS” as the sequence, how does the “soluble fraction (log2)” value read?
**A.** The value was at least 0.43.

**Q.** Which “soluble fraction (log2)” value does the source give for “HMTYSSESVRYRIKSLIDNETIDEILSDDKIVNILKSQGIDVARRTVAKYREAMGLASSIQRRREKKSA” here?
**A.** Its value is -0.0241.

**Q.** For “HMVAGGTVSRKLSIETGLPKRKSLIGSWLDQNSVWHNIISVRHRNGYGDGVNYGFYLRSLLTSEGNLAW”, which “soluble fraction (log2)” value is on record?
**A.** The value was 0.0466.

**Q.** For “HMVAGHLQTKKGYYYIVLNMRTDTGARKTKWIATGIPEGGKKNLKQAEELLAKTRYTYEDMVI”, which “soluble fraction (log2)” value is on record?
**A.** Its value is 0.0939.

**Q.** Which “soluble fraction (log2)” value does the source give for “HMVAPKTEEQQKMFLESIVTKRQAETLIEKYPNIVQDIIDGTDNVDLANLKGIGEHTYNLIKEKVLSNY” here?
**A.** The value was -0.159.

**Q.** Which “soluble fraction (log2)” value does the source give for “HMVAPPILNITTHIFAEEADLRMVMINGVTRREGDSLGENHRLLEITERGLILIFHNKQYTLDV” here?
**A.** The value was -2.1.

**Q.** For “HMVAQEVPYSTFVMRLDRNEVDAVKIIDGNEIEGTFKSPNGDLVQFKTLIPYQDTELMPLLKQKGVRISGS”, which “soluble fraction (log2)” value is on record?
**A.** The value was at least 0.43.

**Q.** Which “soluble fraction (log2)” value does the source give for “HMVARPVLQIGSTGADVTAIQARLGVSQTGYFGVLTAAAVTNFQRSNGIAASGKVGATTWAKLMQSA” here?
**A.** The value was 0.316.

**Q.** With “HMVAVSQEEATKMALERVSGASAQDIRIQLEFDDGIQKYEGDIIYNGREYEFEIDANTGTFLEWSEERA” as the sequence, how does the “soluble fraction (log2)” value read?
**A.** The value was at least 0.43.

**Q.** For “HMVDETDVPTFTDMTLEEAQNEAKQRNLKLEITESPSDKEKDTILEQDPEPGKTVASGSTVKLTVSNGEE”, which “soluble fraction (log2)” value is on record?
**A.** Its value is 0.138.

**Q.** Which “soluble fraction (log2)” value does the source give for “HMVDFHAAYSILRIAPGASWQEIQAAYEKLNDAWREDRYPQVPFWNEKAAFKRREVEQAYEKLRKFHALRH” here?
**A.** Its value is 0.0778.

**Q.** With “HMVDFVNVVVPVKANYGGEAVVEFLDERLSEFGTEGIYRIELQGETMENPSPDYSQLKAKYHISEIVDRT” as the sequence, how does the “soluble fraction (log2)” value read?
**A.** Its value is -0.375.

**Q.** Which “soluble fraction (log2)” value does the source give for “HMVDKDFKPLYASLERLDSTSIIEILDSNRIDYRIDQRSGALLVDADQIHQARLSLASAGMPA” here?
**A.** Its value is -0.844.

**Q.** Which “soluble fraction (log2)” value does the source give for “HMVDLANIDPIASSIKLNGAEADASFNTLEDRRVSVSGSFEENKNYTMEYTFKDYAGGSVTGTLDFKTLA” here?
**A.** The value was 0.129.

**Q.** For “HMVDLAPTEEIIKNLPNNSRSLLIPTLQKIQNAYRYLPSPAMELLSEFLNVTRAEIYGVISFYPSLL”, which “soluble fraction (log2)” value is on record?
**A.** The value was 0.129.

**Q.** With “HMVDLLDETLIEFYAFANNLIKDLETNSEKYGGMSQFEKELIFNEQITQYQRKLKIDLQDEVG” as the sequence, how does the “soluble fraction (log2)” value read?
**A.** Its value is -1.39.

**Q.** Which “soluble fraction (log2)” value does the source give for “HMVDPRLRSLTPQERRILEHIAEGLTNRQIAEDMFLAEKTVKNYVTSILDKLGMDSRTQAAVYAATHPT” here?
**A.** Its value is -0.438.

**Q.** Which “soluble fraction (log2)” value does the source give for “HMVDSTDLIPLLIKVSREKQGNKKLNWGEWLKIPENIYLKQINENIARKVFEDTNDLIDEAVNYINRKRRN” here?
**A.** Its value is -0.558.

**Q.** With “HMVDTEVFSRLLRKVLAGDVTSAIRILEELIVGGRELSQFVGDFTWYMRNLLLVKTSDNPEEA” as the sequence, how does the “soluble fraction (log2)” value read?
**A.** Its value is -0.116.

**Q.** For “HMVDYYEILGVSPDASRKDIENAWRKKMREAHPDMGGSEDKAQLLNEAHKVLSDESARAEYDASR”, which “soluble fraction (log2)” value is on record?
**A.** Its value is -0.0915.

**Q.** For “HMVELPDLIGKSKRLAFTQLEISGLKIGKIIYEPDLAKDAVLKILYNGKIVKAGEQLPRFATVDLVLG”, which “soluble fraction (log2)” value is on record?
**A.** Its value is -0.0904.

**Q.** With “HMVEMIGLQMVGKSGIASTVLRPSGKVRIDGVVYDAVSEDGFIEKGQAVKVLRYETGQVYVEKL” as the sequence, how does the “soluble fraction (log2)” value read?
**A.** Its value is 0.0132.

**Q.** With “HMVEPIEESISQLSLLLQSLYEDGKSEVSFEELIRSDRSRVSLFLALLFMAQRGNVYLEQEELFGDLRVKN” as the sequence, how does the “soluble fraction (log2)” value read?
**A.** Its value is -0.4.

**Q.** Which “soluble fraction (log2)” value does the source give for “HMVEREYRLEVPPEAEGKRLDQFLVNQPVQLSRSQVQHLIQNGLVLVNAKTRRSSYRVHTGDIIEMQVPA” here?
**A.** Its value is -0.088.

**Q.** With “HMVERQVTVPNLTGLGVADAQRLAQSMELDIEVLGEQESTDARPGAVLQQTPGAGTRAAAGSVVSVLV” as the sequence, how does the “soluble fraction (log2)” value read?
**A.** Its value is -0.179.

**Q.** With “HMVEVPEQLRDLLERSIEDLAELSVRSRNSLQKENIQTLGDLVQRTEEEMLGIENFGKKSLTEIAAFL” as the sequence, how does the “soluble fraction (log2)” value read?
**A.** The value was -0.92.

**Q.** With “HMVEYFDDENLDAFIGRESDSYTEKEIEQFREILYTMNQKEVADWNRSLTIRGINIPNDLKDEMIMMI” as the sequence, how does the “soluble fraction (log2)” value read?
**A.** The value was -2.71.

**Q.** With “HMVEYIENINLSEKQKFIAHEILKEIRGRAIFLRDVGLDYLNLSRKAGTLSGGEAQRIRLATQIGSA” as the sequence, how does the “soluble fraction (log2)” value read?
**A.** Its value is -0.347.

**Q.** For “HMVFKSAQEGLDFYSKQLNDVDATLGRIRRGEESGNGLYGSNRVKNLEEQRKKLDSFVTAYRNAVNAT”, which “soluble fraction (log2)” value is on record?
**A.** The value was 0.177.

**Q.** Which “soluble fraction (log2)” value does the source give for “HMVFTEEEMLEKIKEYLSTNSYINRRAMETLFNLRQSTALKWLGHFTEIGVLRKEGERNYPVYFLNN” here?
**A.** The value was -0.159.

**Q.** With “HMVGADTISDLISQRGRMIGDKPITNAVIKSGSEFSTINALSKAIASGDARTNDVEGMKPVFR” as the sequence, how does the “soluble fraction (log2)” value read?
**A.** Its value is -0.0241.

**Q.** For “HMVGKGASIILDRVNLPQYLEKFNEDGFDTIESLKNLNEIDLKEMGVKKGHIRVILNYLHEEY”, which “soluble fraction (log2)” value is on record?
**A.** The value was -0.48.

**Q.** Which “soluble fraction (log2)” value does the source give for “HMVGLKWYDTGNKKPPIGTEYKNTELSEALKGHDRKEFTWKELDVLGVNITDKEQYIVVGENYYTQV” here?
**A.** The value was 0.22.

**Q.** With “HMVGPAHIGLAVAKDQLPHWERHLTANGVEIEGRMRWDHGGESIYFRDPDAHLLELVTPGIWAN” as the sequence, how does the “soluble fraction (log2)” value read?
**A.** The value was -0.1.

**Q.** With “HMVGVDMTVKEEVGKEGVTFTDLRPAGKVEIGNDIYDAVSNTGAFIQKGEKVKIIKYQAGQVYVEKLV” as the sequence, how does the “soluble fraction (log2)” value read?
**A.** Its value is 0.187.

**Q.** Which “soluble fraction (log2)” value does the source give for “HMVIANADVRAKFSKGKDSFVKYYFKEKVLKDGFTEEVKNNIVQALFYLQIVTRIDGESGVLIIDY” here?
**A.** The value was 0.187.

**Q.** Which “soluble fraction (log2)” value does the source give for “HMVIDETVLIDLFERLAEDDRPQRVAFRYILALVLLRKRTLQLIGREDEDDGEIWLLRFKGTDGEPIRV” here?
**A.** Its value is -2.56.

**Q.** Which “soluble fraction (log2)” value does the source give for “HMVIGKHSGSHTLVNDLAKRGITLDKEESATLLEMVRKAAVGLHRSISSDELYGLYKDMKSGQDPFEDS” here?
**A.** Its value is 0.14.

**Q.** For “HMVINVKEILERIKLVKGFHTQIEIARFLGVSKGTISNWLARNSVDFPLVISKLDGVDLNWLFTGIGMPQ”, which “soluble fraction (log2)” value is on record?
**A.** Its value is -0.433.

**Q.** With “HMVISNDEFEDYLNRATEQLVSELSSGKNPRDAVHDLALTFADQHNKSYDAYQRMADSLEARMHTL” as the sequence, how does the “soluble fraction (log2)” value read?
**A.** Its value is -0.156.

**Q.** With “HMVITEQTVTVKYLYEDDTEAAPEHSETHKTGETFEIESPKIDGFTPDYELITGTIANDDLVYIVRYKTTP” as the sequence, how does the “soluble fraction (log2)” value read?
**A.** The value was -0.526.
